Measured values published in patent US20230272020A1 (MEDICAL RESEARCH AND DEVELOPMENT FUND FOR HEALTH SERVICES …, published 2023).

T1: WT-Sema3A with C-terminal His tag (human, UniProt Q14563 21-771, limits assumed)
T1 construct: also called wild type Sema3A; WT-Sema3A peptide; not shown: C-terminal His tag
T1 sequence: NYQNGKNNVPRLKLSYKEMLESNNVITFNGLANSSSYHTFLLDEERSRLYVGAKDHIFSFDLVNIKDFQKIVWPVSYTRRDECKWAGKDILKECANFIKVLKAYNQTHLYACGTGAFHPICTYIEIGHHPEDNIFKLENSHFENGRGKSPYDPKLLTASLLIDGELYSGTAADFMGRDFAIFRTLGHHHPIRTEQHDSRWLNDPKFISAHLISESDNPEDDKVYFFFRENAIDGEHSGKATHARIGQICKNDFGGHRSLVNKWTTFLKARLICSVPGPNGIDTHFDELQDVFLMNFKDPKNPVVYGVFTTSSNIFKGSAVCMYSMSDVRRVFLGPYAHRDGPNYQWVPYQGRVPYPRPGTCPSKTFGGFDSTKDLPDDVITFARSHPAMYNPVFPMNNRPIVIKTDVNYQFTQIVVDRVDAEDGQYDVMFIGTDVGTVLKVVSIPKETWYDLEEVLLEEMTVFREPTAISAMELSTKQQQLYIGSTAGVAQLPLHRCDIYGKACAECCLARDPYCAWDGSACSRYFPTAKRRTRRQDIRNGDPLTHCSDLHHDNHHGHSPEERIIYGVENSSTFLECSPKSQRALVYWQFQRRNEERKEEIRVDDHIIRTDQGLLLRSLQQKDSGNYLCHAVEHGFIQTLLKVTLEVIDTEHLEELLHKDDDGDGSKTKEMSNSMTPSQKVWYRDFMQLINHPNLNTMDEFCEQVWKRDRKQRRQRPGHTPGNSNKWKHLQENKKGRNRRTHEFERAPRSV

B1: CD72 (full-length, untagged, on cells: BLCL-CD72 cells; CD4+ T cells) (receptor, human, UniProt P21854 1-359, looked up)
chain: MAEAITYADLRFVKAPLKKSISSRLGQDPGADDDGEITYENVQVPAVLGVPSSLASSVLGDKAAVKSEQPTASWRAVTSPAVGRILPCRTTCLRYLLLGLLLTCLLLGVTAICLGVRYLQVSQQLQQTNRVLEVTNSSLRQQLRLKITQLGQSAEDLQGSRRELAQSQEALQVEQRAHQAAEGQLQACQADRQKTKETLQSEEQQRRALEQKLSNMENRLKPFFTCGSADTCCPSGWIMHQKSCFYISLTSKNWQESQKQCETLSSKLATFSEIYPQSHSYYFLNSLLPNGGSGNSYWTGLSSNKDWKLTDDTQRTRTYAQSSKCNKVHKTWSWWTLESESCRSSLPYICEMTAFRFPD
notes: whole, on cells; also called CD72 receptor
B2: Sema3A-AP (WT-Sema3A in frame with alkaline phosphatase) (ligand)
chain: T1 sequence
notes: Secreted by HEK293-Sema3A-AP cells and used as 50-fold concentrated conditioned medium; also called Sema3A-Alkaline Phosphatase; AP-Sema3A; not shown: alkaline phosphatase fused in frame

Assays:
[1] = target: T1, WT-Sema3A with C-terminal His tag; assay: inferred by the filing from the phosphorylation assay in BLCL versus BLCL+CD72 cells
Method: Cells were serum starved for 16 h. At the day of the experiment, cells were activated with 5 μg/ml anti IgM for 5 min at 37° C. and then 10 μg/ml of Sema3A or elution buffer as a control were added for extra 10 min at 37° C. The experiment was terminated by a wash with ice cold PBS and lysed with phosphorylation lysis buffer (50 mM Tris-HCl pH-7.5, 150 mM NaCl, 2 mM EDTA, 2 mM EGTA, 5 mM NaF, 2 mM Na₃VO₄, 10 mM Na₄P₂O₇, 1% Triton X-100). 80 μg of proteins were subjected to SDS-PAGE and immunoblotted with an antibody directed against phosphorylated target protein, the blot was then stripped and re-probed with an antibody directed against total protein. Western blots were probed with the following antibodies: anti STAT4 (C-4) (Santa Cruz Biotechnology), anti phospho-STAT4 (Tyr693) (Santa Cruz Biotechnology), p38 MAPK Antibody (Cell Signaling Technology, Inc), Phospho-p38 MAPK (Thr180/Tyr182) Antibody (Cell Signaling Technology, Inc). Quantification of band intensity was performed using ImageQuant LAS 4000 program.
To test whether Sema3A signal transduction is mediated by CD72, Furthermore, CD72 was expressed in primary B-lymphoblastoid cells that lack neuropilin-1. […] Next, BLCL cells and BLCL cells expressing CD72 (BLCL+CD72) were stimulated with WT-Sema3A peptide. The phosphorylation state of Stat-4 and P38 was than determined. […]

[2] = target: T2, neuropilin-1 receptor (human, UniProt O14786 22-923); assay: Sema3A-AP on parental U87MG cells expressing Nrp1, alkaline phosphatase colorimetric assay
T2 construct: whole, on cells; Endogenous receptor on human cells; also called Nrp1; nrp1
T2 sequence (O14786 22-923): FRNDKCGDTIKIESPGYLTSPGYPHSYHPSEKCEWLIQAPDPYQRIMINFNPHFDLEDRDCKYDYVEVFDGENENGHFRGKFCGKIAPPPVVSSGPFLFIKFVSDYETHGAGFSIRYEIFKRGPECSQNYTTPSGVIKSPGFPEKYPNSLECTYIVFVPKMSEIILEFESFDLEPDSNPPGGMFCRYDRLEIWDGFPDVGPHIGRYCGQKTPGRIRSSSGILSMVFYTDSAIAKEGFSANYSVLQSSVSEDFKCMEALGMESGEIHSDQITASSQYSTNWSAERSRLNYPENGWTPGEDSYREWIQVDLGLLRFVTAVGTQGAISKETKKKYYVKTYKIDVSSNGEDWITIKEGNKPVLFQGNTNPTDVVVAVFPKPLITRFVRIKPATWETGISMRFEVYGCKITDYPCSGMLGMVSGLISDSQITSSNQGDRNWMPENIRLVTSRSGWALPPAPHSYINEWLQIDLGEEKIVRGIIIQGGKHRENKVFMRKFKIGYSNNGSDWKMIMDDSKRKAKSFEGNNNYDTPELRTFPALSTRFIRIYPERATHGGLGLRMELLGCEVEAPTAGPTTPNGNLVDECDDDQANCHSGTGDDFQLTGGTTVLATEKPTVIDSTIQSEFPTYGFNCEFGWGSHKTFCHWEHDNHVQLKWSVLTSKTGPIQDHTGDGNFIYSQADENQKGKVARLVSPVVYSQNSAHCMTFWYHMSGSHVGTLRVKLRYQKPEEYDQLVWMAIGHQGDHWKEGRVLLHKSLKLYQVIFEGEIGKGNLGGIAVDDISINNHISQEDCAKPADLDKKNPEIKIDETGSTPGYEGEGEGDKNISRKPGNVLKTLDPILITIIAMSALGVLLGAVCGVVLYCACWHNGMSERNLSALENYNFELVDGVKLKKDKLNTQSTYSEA

Row | Binder | binding result [1] | binding result [2]
1 | B1 | binds | –
2 | B2 | – | binds
